Common to all, as to type: ADME
Data set [1] addresses T1, Bleomycin hydrolase (Homo sapiens, UniProt Q13867).
T1 sequence (Q13867 whole entry): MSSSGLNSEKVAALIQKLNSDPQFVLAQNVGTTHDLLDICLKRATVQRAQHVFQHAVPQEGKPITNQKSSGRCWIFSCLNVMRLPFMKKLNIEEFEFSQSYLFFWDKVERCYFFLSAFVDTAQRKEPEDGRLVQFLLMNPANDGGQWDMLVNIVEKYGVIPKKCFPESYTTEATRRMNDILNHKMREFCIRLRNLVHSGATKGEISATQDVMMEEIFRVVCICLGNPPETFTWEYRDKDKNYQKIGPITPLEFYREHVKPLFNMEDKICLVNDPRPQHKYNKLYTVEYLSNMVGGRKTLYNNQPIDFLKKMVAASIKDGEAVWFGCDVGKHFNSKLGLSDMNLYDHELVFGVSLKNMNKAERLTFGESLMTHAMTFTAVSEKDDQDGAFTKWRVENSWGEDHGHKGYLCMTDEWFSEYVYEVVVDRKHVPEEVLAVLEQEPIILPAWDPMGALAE
Put plainly: Substrate activity at recombinant human N-terminal His6-tagged BLMH expressed in Escherichia coli BL21(DE3) assessed as Kcat to Km ratio measured after 1 hr by HPLC-based Michaelis-Menten plot analysis relative to BLM B2.

The target in data set [2] is T1, Bleomycin hydrolase. Put plainly: (§1) Substrate activity at recombinant human BLMH expressed in baculovirus infected Sf9 insect cells assessed as Kcat to Km ratio.
Data set [3] deals with T1, Bleomycin hydrolase. Put plainly: Substrate activity at recombinant human N-terminal His6-tagged BLMH expressed in Escherichia coli BL21(DE3) assessed as Kcat to Km ratio measured after 1 hr by HPLC-based Michaelis-Menten plot analysis.
Data set [4] deals with T1, Bleomycin hydrolase. Put plainly: (§2) Substrate activity at recombinant human N-terminal His6-tagged BLMH expressed in Escherichia coli BL21(DE3) measured after 1 hr by HPLC-based Michaelis-Menten plot analysis.
Substrate in data set [5]: [H][C@]1(O[C@@H]2[C@H](O[C@@H](c3c[nH]cn3)[C@H](NC(=O)c3nc([C@H](CC(N)=O)NC[C@H](N)C(N)=O)nc(N)c3C)C(=O)N[C@H](C)[C@@H](O)[C@H](C)C(=O)N[C@H](C(=O)NCCc3nc(-c4nc(C(=O)NCCC(=N)N)cs4)cs3)[C@@H](C)O)O[C@@H](CO)[C@@H](O)[C@@H]2O)O[C@H](CO)[C@@H](O)[C@H](OC(N)=O)[C@@H]1O
The description is as §2.

Substrate in data set [6]: Cc1c(N)nc([C@H](CC(N)=O)NC[C@H](N)C(N)=O)nc1C(=O)N[C@H](C(=O)N[C@H](C)[C@@H](O)[C@H](C)C(=O)N[C@H](C(=O)NCCc1nc(-c2nc(C(=O)NCCCCNC(=N)N)cs2)cs1)[C@@H](C)O)[C@@H](O[C@@H]1O[C@@H](CO)[C@@H](O)[C@H](O)[C@@H]1O[C@H]1O[C@H](CO)[C@@H](O)[C@H](OC(N)=O)[C@@H]1O)c1c[nH]cn1
Described as §2.

Substrate in data set [7]: [H][C@]1(O[C@@H]2[C@H](O[C@@H](c3c[nH]cn3)[C@H](NC(=O)c3nc([C@H](CC(N)=O)NC[C@H](N)C(N)=O)nc(N)c3C)C(=O)N[C@H](C)[C@@H](O)[C@H](C)C(=O)N[C@H](C(=O)NCCc3nc(-c4nc(C(=O)NCCC[S+](C)C)cs4)cs3)[C@@H](C)O)O[C@@H](C)[C@@H](O)[C@@H]2O)O[C@H](CO)[C@@H](O)[C@H](OC(N)=O)[C@@H]1O
The data set is described as §2.

Substrate in data set [8]: [H][C@]1(O[C@@H]2[C@H](O[C@@H](c3c[nH]cn3)[C@H](NC(=O)c3nc([C@H](CC(N)=O)NC[C@H](N)C(N)=O)nc(N)c3C)C(=O)N[C@H](C)[C@@H](O)[C@H](C)C(=O)N[C@H](C(=O)NCCc3nc(-c4nc(C(=O)NCCC(=N)N)cs4)cs3)[C@@H](C)O)O[C@@H](C)[C@@H](O)[C@@H]2O)O[C@H](CO)[C@@H](O)[C@H](OC(N)=O)[C@@H]1O
The data set is described as §2.

Substrate in data set [9]: [H][C@]1(O[C@@H]2[C@H](O[C@@H](c3c[nH]cn3)[C@H](NC(=O)c3nc([C@H](CC(N)=O)NC[C@H](N)C(N)=O)nc(N)c3C)C(=O)N[C@H](C)[C@@H](O)CC(=O)N[C@H](C(=O)NCCc3nc(-c4nc(C(=O)NCCCC(N)CC(=O)NCCCNCCCCN)cs4)cs3)[C@@H](C)O)O[C@@H](C)[C@@H](O)[C@@H]2O)O[C@H](CO)[C@@H](O)[C@H](OC(N)=O)[C@@H]1O
The data set is described as §2.

Substrate in data set [10]: [H][C@]1(O[C@@H]2[C@H](O[C@@H](c3c[nH]cn3)[C@H](NC(=O)c3nc([C@H](CC(N)=O)NC[C@H](N)C(N)=O)nc(N)c3C)C(=O)N[C@H](C)[C@@H](O)CC(=O)N[C@H](C(=O)NCCc3nc(-c4nc(C(=O)NCCCC(N)CC(=O)NCCCNCCCCN)cs4)cs3)[C@@H](C)O)O[C@@H](CO)[C@@H](O)[C@@H]2O)O[C@H](CO)[C@@H](O)[C@H](OC(N)=O)[C@@H]1O
The description is as §2.

Substrate in data set [11]: Cc1c(N)nc([C@H](CC(N)=O)NC[C@H](N)C(N)=O)nc1C(=O)N[C@H](C(=O)N[C@H](C)[C@@H](O)[C@H](C)C(=O)N[C@H](C(=O)NCCc1nc(-c2nc(C(=O)NCCCCNC(=N)N)cs2)cs1)[C@@H](C)O)[C@@H](O[C@@H]1O[C@@H](CO)[C@@H](O)[C@H](O)[C@@H]1O[C@H]1O[C@H](CO)[C@@H](O)[C@H](OC(N)=O)[C@@H]1O)c1c[nH]cn1
Described as §1.

As for `Cc1c(N)nc([C@H](CC(N)=O)NC[C@H](N)C(N)=O)nc1C(=O)N[C@H](C(=O)N[C@H](C)[C@@H](O)[C@H](C)C(=O)N[C@H](C(=O)NCCc1nc(-c2nc(C(=O)NCCC(=N)N)cs2)cs1)[C@@H](C)O)[C@@H](O[C@@H]1O[C@@H](CO)[C@@H](O)[C@H](O)[C@@H]1O[C@H]1O[C@H](CO)[C@@H](O)[C@H](OC(N)=O)[C@@H]1O)c1c[nH]cn1`, the “fold change (FC)” value in [1] stood at 0.19.
The same measure, in the same setting: with `Cc1c(N)nc([C@H](CC(N)=O)NC[C@H](N)C(N)=O)nc1C(=O)N[C@H](C(=O)N[C@H](C)[C@@H](O)CC(=O)N[C@H](C(=O)NCCc1nc(-c2nc(C(=O)NCCCC(N)CC(=O)NCCCNCCCCN)cs2)cs1)[C@@H](C)O)[C@@H](O[C@@H]1O[C@@H](CO)[C@@H](O)[C@H](O)[C@@H]1O[C@H]1O[C@H](CO)[C@@H](O)[C@H](OC(N)=O)[C@@H]1O)c1c[nH]cn1` (stereo partly drawn) the figure was 0.06.
Same read-out and setting: the value for `Cc1c(N)nc([C@H](CC(N)=O)NC[C@H](N)C(N)=O)nc1C(=O)N[C@H](C(=O)N[C@H](C)[C@@H](O)CC(=O)N[C@H](C(=O)NCCc1nc(-c2nc(C(=O)NCCCC(N)CC(=O)NCCCNCCCCN)cs2)cs1)[C@@H](C)O)[C@@H](O[C@@H]1O[C@@H](C)[C@@H](O)[C@H](O)[C@@H]1O[C@H]1O[C@H](CO)[C@@H](O)[C@H](OC(N)=O)[C@@H]1O)c1c[nH]cn1` (stereo partly drawn) was 0.06; that for `Cc1c(N)nc([C@H](CC(N)=O)NC[C@H](N)C(N)=O)nc1C(=O)N[C@H](C(=O)N[C@H](C)[C@@H](O)[C@H](C)C(=O)N[C@H](C(=O)NCCc1nc(-c2nc(C(=O)NCCC(=N)N)cs2)cs1)[C@@H](C)O)[C@@H](O[C@@H]1O[C@@H](C)[C@@H](O)[C@H](O)[C@@H]1O[C@H]1O[C@H](CO)[C@@H](O)[C@H](OC(N)=O)[C@@H]1O)c1c[nH]cn1` was 0.28.
A word on the Km: it is the substrate concentration at which the rate is half of its maximum. With BLEOMYCIN, the Kcat/Km in data set [2] was found to be 5000 M⁻¹ s⁻¹. The Kcat/Km in [3] was found to be 6.7 ×10⁻³ /microM/s. For the same molecule, in [4], the Kcat is 4 s⁻¹ and the Michaelis-Menten constant (Km) is 592 µM. Moreover, the “fold change (FC)” value in data set [1] is on record as 0.12.
As to `Cc1c(N)nc([C@H](CC(N)=O)NC[C@H](N)C(N)=O)nc1C(=O)N[C@H](C(=O)N[C@H](C)[C@@H](O)[C@H](C)C(=O)N[C@H](C(=O)NCCc1nc(-c2nc(C(=O)NCCC[S+](C)C)cs2)cs1)[C@@H](C)O)[C@@H](O[C@@H]1O[C@@H](C)[C@@H](O)[C@H](O)[C@@H]1O[C@H]1O[C@H](CO)[C@@H](O)[C@H](OC(N)=O)[C@@H]1O)c1c[nH]cn1`, the “fold change (FC)” value in data set [1] is reported as 0.11.

B1: Bleomycin hydrolase (Homo sapiens) (protein)
chain: MSSSGLNSEKVAALIQKLNSDPQFVLAQNVGTTHDLLDICLKRATVQRAQHVFQHAVPQEGKPITNQKSSGRCWIFSCLNVMRLPFMKKLNIEEFEFSQSYLFFWDKVERCYFFLSAFVDTAQRKEPEDGRLVQFLLMNPANDGGQWDMLVNIVEKYGVIPKKCFPESYTTEATRRMNDILNHKMREFCIRLRNLVHSGATKGEISATQDVMMEEIFRVVCICLGNPPETFTWEYRDKDKNYQKIGPITPLEFYREHVKPLFNMEDKICLVNDPRPQHKYNKLYTVEYLSNMVGGRKTLYNNQPIDFLKKMVAASIKDGEAVWFGCDVGKHFNSKLGLSDMNLYDHELVFGVSLKNMNKAERLTFGESLMTHAMTFTAVSEKDDQDGAFTKWRVENSWGEDHGHKGYLCMTDEWFSEYVYEVVVDRKHVPEEVLAVLEQEPIILPAWDPMGALAE
By kcat is commonly meant the number of substrate molecules converted per active site and unit of time at saturation. What is called kcat/Km is the second-order rate constant that governs catalysis at low substrate concentration. B1: the Km was found to be 854 µM in data set [5]; 190 µM in data set [6]; 805 µM in data set [7]; 942 µM in [8]; 720 µM in data set [9]; 743 µM in data set [10]. Also, the kcat in data set [5] worked out at 9.8 s⁻¹; in data set [6], 11 s⁻¹; in data set [7], 4.9 s⁻¹; in [8], 15 s⁻¹; in [9], 2.5 s⁻¹; in [10], 2.4 s⁻¹. Besides, the kcat/Km in data set [5] was found to be 11000 M⁻¹ s⁻¹; in data set [7], 6100 M⁻¹ s⁻¹; in data set [8] it was 16000 M⁻¹ s⁻¹; in data set [9], 3500 M⁻¹ s⁻¹; in data set [10], 3200 M⁻¹ s⁻¹; in data set [11], 12000 M⁻¹ s⁻¹.

For the origin of these results see ChEMBL document CHEMBL4229398, “Activities of recombinant human bleomycin hydrolase on bleomycins and engineered analogues revealing new opportunities to overcome bleomycin-induced pulmonary toxicity” (Bioorg Med Chem Lett, 2018).
